Measurements as given in US20170166618A1 (Novartis, published 2017).

Biological target: FGF23 receptor
Assay: cell-based or functional assay

B1: sKlotho-FGF23-6×His fusion polypeptide (ligand)
chain: EPGDGAQTWARFSRPPAPEAAGLFQGTFPDGFLWAVGSAAYQTEGGWQQHGKGASIWDTFTHHPLAPPGDSRNASLPLGAPSPLQPATGDVASDSYNNVFRDTEALRELGVTHYRFSISWARVLPNGSAGVPNREGLRYYRRLLERLRELGVQPVVTLYHWDLPQRLQDAYGGWANRALADHFRDYAELCFRHFGGQVKYWITIDNPYVVAWHGYATGRLAPGIRGSPRLGYLVAHNLLLAHAKVWHLYNTSFRPTQGGQVSIALSSHWINPRRMTDHSIKECQKSLDFVLGWFAKPVFIDGDYPESMKNNLSSILPDFTESEKKFIKGTADFFALCFGPTLSFQLLDPHMKFRQLESPNLRQLLSWIDLEFNHPQIFIVENGWFVSGTTKRDDAKYMYYLKKFIMETLKAIKLDGVDVIGYTAWSLMDGFEWHRGYSIRRGLFYVDFLSQDKMLLPKSSALFYQKLIEKNGFPPLPENQPLEGTFPCDFAWGVVDNYIQVDTTLSQFTDLNVYLWDVHHSKRLIKVDGVVTKKRKSYCVDFAAIQPQIALLQEMHVTHFRFSLDWALILPLGNQSQVNHTILQYYRCMASELVRVNITPVVALWQPMAPNQGLPRLLARQGAWENPYTALAFAEYARLCFQELGHHVKLWITMNEPYTRNMTYSAGHNLLKAHALAWHVYNEKFRHAQNGKISIALQADWIEPACPFSQKDKEVAERVLEFDIGWLAEPIFGSGDYPWVMRDWLNQRNNFLLPYFTEDEKKLIQGTFDFLALSHYTTILVDSEKEDPIKYNDYLEVQEMTDITWLNSPSQVAVVPWGLRKVLNWLKFKYGDLPMYIISNGIDDGLHAEDDQLRVYYMQNYINEALKAHILDGINLCGYFAYSFNDRTAPRFGLYRYAADQFEPKASMKHYRKIIDSNGFPGPETLERFCPEEFTVCTECSFFHTRKSLGSGGGGSGGGGSGGGGSLKYPNASPLLGSSWGGLIHLYTATARNSYHLQIHKNGHVDGAPHQTIYSALMIRSEDAGFVVITGVMSRRYLCMDFRGNIFGSHYFDPENCRFQHQTLENGYDVYHSPQYHFLVSLGRAKRAFLPGMNPPPYSQFLSRRNEIPLIHFNTPIPRRHTQSAEDDSERDPLNVLKPRARMTPAPASCSQELPSAEDNSPMASDPLGVVRGGRVNTHAGGTGPEGCRPFAKFIHHHHHH
B1 was tested, and the “Egr-1-luciferase reporter activity, fold change at about 0.6 nM, with heparin (20 µg/ml)” value was 2 fold change, the “Egr-1-luciferase reporter activity, fold change at about 1.21 nM, no heparin” value was 1.2 fold change and the “Egr-1-luciferase reporter activity, fold change at about 19.3 nM, no heparin” value was 2.4 fold change.
